{
  "source": "patent US20070071724",
  "proteins": {"B1": {"name": "Uch-L3 (Boston Biochem) (protein)", "chain": "MEGQRWLPLEANPEVTNQFLKQLGLHPNWQFVDVYGMDPELLSMVPRPVCAVLLLFPITEKYEVFRTEEEEKIKSQGQDVTSSVYFMKQTISNACGTIGLIHAIANNKDKMHFESGSTLKKFLEESVSMSPEERARYLENYDAIRVTHETSAHEGQTEAPSIDEKVDLHFIALVHVDGHLYELDGRKPFPINHGETSDETLLEDAIEVCKKFMERDPDELRFNAIALSAA"}},
  "molecular_target": "Nedd8-AMC (Boston Biochem), Q15843",
  "sequence (Q15843 whole entry, looked up)": "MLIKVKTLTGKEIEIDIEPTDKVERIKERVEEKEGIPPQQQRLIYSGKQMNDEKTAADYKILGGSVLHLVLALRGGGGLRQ",
  "data": [
    {"protein": "B1", "values": [
      {"measurement": "hydrolysis of Nedd8-AMC", "result": "there was no reduction in hydrolysis of Nedd8-AMC, a ubiquitin-like protein that binds to and is cleaved by Uch-L3, when 20 nM Uch-L3 was incubated with 5 µM LDN"}
    ]}
  ]
}
